Molecular target: His6-3C-SUMO-Sec22 TMD-thrombin-HiBiT

- percent of substrate extracted from standard liposomes by Msp1 with ATP (split-luciferase extraction assay, 30 min, 30 °C): 10%
B1: Δ1-32 Msp1 (enzyme)
chain: DVESGPLSGKSRESKAKQSLQWEKLVKRSPALAEVTLDAYERTILSSIVTPDEINITFQDIGGLDPLISDLHESVIYPLMMPEVYSNSPLLQAPSGVLLYGPPGCGKTMLAKALAKESGANFISIRMSSIMDKWYGESNKIVDAMFSLANKLQPCIIFIDEIDSFLRERSSTDHEVTATLKAEFMTLWDGLLNNGRVMIIGATNRINDIDDAFLRRLPKRFLVSLPGSDQRYKILSVLLKDTKLDEDEFDLQLIADNTKGFSGSDLKELCREAALDAAKEYIKQKRQLIDSGTIDVNDTSSLKIRPLKTKDFTKKLRMDATSTLSSQPLD
